Source: patent US20180334493A1 (Takeda / Millennium, published 2018)

Target: T1, C1 esterase (UniProt P09871 16-688, limits assumed)
T1 sequence (looked up): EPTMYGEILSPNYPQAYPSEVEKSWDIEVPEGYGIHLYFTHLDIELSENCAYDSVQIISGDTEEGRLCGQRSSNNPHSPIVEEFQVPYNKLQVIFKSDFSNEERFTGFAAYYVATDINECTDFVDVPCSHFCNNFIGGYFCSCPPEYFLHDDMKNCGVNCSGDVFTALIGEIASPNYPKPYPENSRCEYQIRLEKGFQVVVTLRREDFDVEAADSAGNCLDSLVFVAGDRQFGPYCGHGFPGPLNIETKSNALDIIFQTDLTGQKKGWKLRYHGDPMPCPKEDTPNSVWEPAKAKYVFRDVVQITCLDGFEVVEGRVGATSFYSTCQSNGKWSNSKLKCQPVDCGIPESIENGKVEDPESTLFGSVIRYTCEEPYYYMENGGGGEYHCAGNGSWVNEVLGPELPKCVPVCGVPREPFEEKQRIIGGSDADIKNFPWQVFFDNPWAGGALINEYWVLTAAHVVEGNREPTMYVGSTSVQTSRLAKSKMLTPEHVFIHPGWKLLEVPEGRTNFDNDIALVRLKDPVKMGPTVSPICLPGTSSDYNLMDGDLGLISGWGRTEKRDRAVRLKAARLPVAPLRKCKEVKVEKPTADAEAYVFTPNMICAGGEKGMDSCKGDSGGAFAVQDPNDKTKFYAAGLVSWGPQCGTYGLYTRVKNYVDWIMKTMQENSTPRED
Test: cell-based or functional assay

B1: recombinant human C1 esterase inhibitor (rhC1-INH) (other)
chain: NPNATSSSSQDPESLQDRGEGKVATTVISKMLFVEPILEVSSLPTTNSTTNSATKITANTTDEPTTQPTTEPTTQPTIQPTQPTTQLPTDSPTQPTTGSFCPGPVTLCSDLESHSTEAVLGDALVDFSLKLYHAFSAMKKVETNMAFSPFSIASLLTQVLLGAGQNTKTNLESILSYPKDFTCVHQALKGFTTKGVTSVSQIFHSPDLAIRDTFVNASRTLYSSSPRVLSNNSDANLELINTWVAKNTNNKISRLLDSLPSDTRLVLLNAIYLSAKWKTTFDPKKTRMEPFHFKNSVIKVPMMNSKKYPVAHFIDQTLKAKVGQLQLSHNLSLVILVPQNLKHRLEDMEQALSPSVFKAIMEKLEMSKFQPTLLTLPRIKVTTSQDMLSIMEKLEFFDFSYDLNLCGLTEDPDLQVSAMQHQTVLELTETGVEAAAASAISVARTLLVFEVQQPFLFVLWDQQHKFPVFMGRVYDPRA
modifications: heavily N- and O-glycosylated, sialylated (CHO-expressed)
- potency relative to the initial development reference standard: 121%
